Results on 15 molecules are retold here after US20250282887A1 (Amgen, published 2025).

Assay [1] has as its target T1, Human MAGEB2 (Melanoma-associated antigen B2) (human, UniProt O15479 1-319).
T1 construct: Intracellular antigen detected by IHC in FFPE material: CHO cells transfected with human MAGEB2 (mCherry vector with Myc/DDK tags, or ORF without tags)
T1 sequence: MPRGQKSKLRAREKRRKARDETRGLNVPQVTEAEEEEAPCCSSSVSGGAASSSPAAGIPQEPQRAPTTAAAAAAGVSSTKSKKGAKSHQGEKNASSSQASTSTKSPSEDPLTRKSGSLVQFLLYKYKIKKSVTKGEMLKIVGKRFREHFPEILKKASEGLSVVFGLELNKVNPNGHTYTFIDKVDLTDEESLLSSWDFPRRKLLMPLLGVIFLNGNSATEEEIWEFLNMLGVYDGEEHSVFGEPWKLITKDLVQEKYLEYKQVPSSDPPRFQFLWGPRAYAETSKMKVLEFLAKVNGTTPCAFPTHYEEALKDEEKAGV
Kind of assay: IHC, antibody supernatant on FFPE CHO cells transfected with human MAGEB2. The source says:
Negative control cells included parental Chinese hamster ovary (CHO) cells, CHO cells stably transfected with mCherry Vector Control (minus Myc/DDK tags), CHO cells stably transfected with mCherry-human DCAF4L2 (plus Myc/DDK tags). The cross-reactivity control cells included CHO cells transfected with mCherry Vector Control (plus Myc/DDK tags) with one of the human MAGE-B or MAGE-A family members (MAGEA1, MAGEA2, MAGEA3, MAGEA4, MAGEA5, MAGEA6, MAGEA8, MAGEA9, MAGEA11, MAGEA12, MAGEB1, MAGEB3, MAGEB4, MAGEB5, MAGEB6, MAGEB10, MAGEB16, MAGEB17, MAGEB18). Positive control cell lines included CHO cells transfected with mCherry Vector (plus Myc/DDK tags) with human MAGE-B2 or CHO cells transfected with mCherry Vector (open reading frame (ORF); minus Myc/DDK tags) with human MAGEB2, and thirteen human cancer cell lines with known endogenous RNA expression level of MAGEB2 (U266B1, T98G, KMM-1, U20S, CFPAC-1, SCaBER, UACC-257, CFPAC-1, VMRC-LCD, NCI-H1703, UM-UC-3, NCI-H1395, NCIH82).
FFPE samples were sectioned at 4 μm and mounted on positive charged glass slides. After mounting, paraffin sections were air-dried at room temperature. FFPE TMA samples were received as freshly sectioned and mounted on glass slides. The fully automated IHC assay was performed on a Discovery Ultra Stainer (Ventana Medical Systems, Tucson, AZ) using Ventana Anti-Rabbit HQ (cat #760-4815), Ventana Anti-HQ HRP (cat #760-4820), and Ventana Antibody Diluent with Casein (cat #760-219) (Ventana Medical Systems, Tucson, AZ). The slides were baked on the Discovery Ultra Stainer at 60° C. for 8 minutes, de-paraffinized with Ventana Discovery wash (cat #950-510) for 3 cycles (8 minutes each) at 69° C., and underwent cell conditioning (target retrieval) at 95° C. for 16 minutes (for cell arrays) or 32 minutes (tissues or TMAs) in CC1 buffer (cat #950-500). Following this, slides were incubated with Background Sniper (cat #BS966M, Biocare Medical, Pacheco, CA) in a Ventana Option Prep kit (cat #771-751) for 28 minutes, incubated with CM inhibitor (a part of the Ventana DAB kit cat #760-159) for 12 minutes, and incubated for 1 h at RT with MAGE-B2 antibody diluted with Ventana diluent with Casein in a Ventana Prep kit (cat #770-001) (working concentration at 0.1 μg/ml for cell pellet, or 1-5 ug/ml for tissues) or with a matched concentration of isotype control Rabbit IgG1 antibody.

Assay [2] deals with T2, huMAGEB2(1-319), biotinylated full length MAGEB2 protein (human, UniProt O15479 1-319, biotinylated with recombinant BirA (site not stated)).
T2 construct: Expressed in E. coli from pET23; N-terminal 6xHis tag removed with caspase 3; also called Biotinylated MAGEB2 full length protein
T2 sequence: T1 sequence
Briefly: limited antigen FACS; biotinylated full length MAGEB2 on LumAvidin beads; B-cell supernatant. The method, then:
Biotinylated MAGEB2 full length protein was titrated 1:2 across 6 different limited antigen concentrations and then coated onto six different LumAvidin beads in FACS buffer [1×PBS+2% fetal bovine serum (Hyclone Cat No. SH30396.03)] for 30 minutes at room temperature in the dark. The beads were then washed twice in FACS buffer by centrifugation for 2 min at 3500 RPM. The coated beads were resuspended and pooled together (6-plex) and added to the rabbit B-cell supernatants at a 1:2 final dilution onto Corning 3897 96 well V-bottom polystyrene plates and incubated overnight at room temperature in the dark. […] A final wash was done before plates were read on the iQue FACS machine with Intellicyte autosampler to obtain flow cytometry measurements according to the manufacturer's recommendations; data analysis was done on Intellicyt ForeCyt® Enterprise Client Edition 6.2 (R3).

Positions count from the first letter of the chain named.

B1: 1H17 (antibody, V domains shown)
VH: QEQLVESGGGLVKPGASLTLTCKASGFSFSSGQLMCWVRQAPGKGLEWIACIGSGSNAISTFYASWAQGRFTISKSSSTTVTLQLTSLTAADTATYFCARVGSDDYGDSDVFDPWGPGTLVTVSS
VL: AAVLTQTPSPVSAAVGGTVSASCQSSKSVYNKNWLSWFQQKPGQPPKLLIYGASTLASGVPSRFKGSGSGTQFTLTISDVQCDDAATYYCAGGYSSSSDTFAFGGGTEVVVKG
Take B1: the binding result in assay [1] and in assay [2] was “binds” throughout.

B2: 4G8 (antibody, IgG1, V domains shown)
VH: QEQLVESGGGLVQPEGSLTLTCAASGFSFSSSYFMCWVRQAPGKGLEWIACIAVGSSGSTYYASWAKGRFTISKTSSTTVTLQMTSLTAADTATYFCARVGYDDYGDSDAFDPWGPGTLVTVSS
VL: AAVLTQTPSPVSAAVGGTVTINCQSSKSVYNKNWLSWFQQKPGQPPKLLIYGASTLASGVPSRFKGSGSGTQFTLTISDVQCDDVATYYCAGGYSSSSDTFAFGGGTEVVVK
notes: Rabbit monoclonal IgG1
In the case of B2, the binding result in assay [1] and in assay [2] was “binds” each time.

B3: 1I23 (antibody, IgG1, V domains shown)
VH: QEQLVESGGGLVQPKGSLTLTCAASGFSFSSSYFMCWVRQAPGKGLEWIACIGSGSSAISTFYASWAQGRFTISKTSSTTVTLQMTSLTAADTATYFCARVGYDDYGDSDAFDPWGPGTLVTVSS
VL: B2 VL with T20S, N22S, V85A
notes: Rabbit monoclonal IgG1
In the case of B3, the binding result in assay [1] and in assay [2] was “binds” throughout.

B4: 4A7 (antibody, IgG1, V domains shown)
VH: B2 VH with A53G, S56G, S64N, G101A, Y105D
VL: B2 VL with T20S, N22S, D79G, V85A
notes: Rabbit monoclonal IgG1
Consider B4, for which the binding result in assay [1] and in assay [2] was “binds” in each case.

B5: 7H4 (antibody, IgG1, V domains shown)
VH: QSLEESGGGLVKPGASLTLTCKASGSDFRSYYYICWVRQAPGKGLEWVACIGGGNTDATAYARWAKGRFTISKTSATTVALQMTSLTAADTATYFCVRGGPDNNVQFNLWGPGTLVTVSS
VL: QAVVTQTPSSVSAAVGGTVTISCQSSQSVYSNNLLSWYQQKPGQPPKLLIYKASTLASGVPSRLKGSGSGTQFTLTISEVQCDDAATYYCQGYYSGVIYMFGGGTEVVVK
notes: Rabbit monoclonal IgG1
With B5, the binding result in assay [1] and in assay [2] was “binds” each time.

B6: 7B20 (antibody, IgG1, V domains shown)
VH: B5 VH with F28L, R29S, Y31A, V37I, G54V, T56R, D57V, R63T, A76S, A80T
VL: B5 VL with Q1A, A2Q, V4L, S9A, N32S, N33D, L64F, V80L, I98V, M100I
notes: Rabbit monoclonal IgG1
Take B6: the binding result in assay [1] and in assay [2] was “binds” throughout.

B7: 7F15 (antibody, IgG1, V domains shown)
VH: QEQLKESGGGLVAPGGTLTLTCAVSGFSLSSYNMGWVRQAPGEGLEYIGIIGASDSALYASWAKGRFTISKTSTTVDLKITSPTTEDTATYFCARGGLGLSTGFALWGPGTLVTVSS
VL: AAVLTQTPSPVSAAVGGTVSISCQSSQSVWHNDYLSWYQQKPGQPPKLLIYGASTLASGVPSRFKGSGSGTQFSLTISGVQCDDAATYYCAGGYGRSSENGFGGGTEVVVK
notes: Rabbit monoclonal IgG1
For B7, the binding result in assay [1] and in assay [2] was “binds” in each case.

B8: 1J16 (antibody, IgG1, V domains shown)
VH: QSLEESGGGLVQPEGSLTVTCTAFGVTLTNYYICWVRQAPGKGLEWIGCIDNINGRTYYASWAKGRFTISKTSSTTGTLQMTSLTAADTATYFCARSLATPLWGPGTLVTVSS
VL: DIVMTQTPASVEAAVGGTVTIKCQASQSISSYLAWYHQKPGQPPKLLIYAASTLASGVPSRFEGSGSGTQFTLTISDLECADAATYYCQSYDDSRSSSFFYAFGGGTEVVVK
notes: Rabbit monoclonal IgG1
B8: the binding result in assay [1] and in assay [2] was “binds” in each case.

B9: 1G24 (antibody, IgG1, V domains shown)
VH: B8 VH with V19L, F24S, V26F, T29N, G48A, I53A, S61N, G77V
VL: DIVMTQTPASVEAAVGGTVTIKCQASESIGNALAWYQQKPGQPPSLLIYRASTLASGIPSRVKGSGSGTQFTLTISDLECADAATYYCQSYDDSSSSSFFYAFGGGTEVVVK
notes: Rabbit monoclonal IgG1
As for B9, the binding result in assay [1] and in assay [2] was “binds” throughout.

B10: 1H24 (antibody, IgG1, V domains shown)
VH: B8 VH with V19L, F24S, V26F, T29N, G48A, I53S, G77V, A99S
VL: B8 VL with A9F, A34S, H37R, A50R, E63K, R95S, S97N, S98N, A102G, K112R
notes: Rabbit monoclonal IgG1
Regarding B10, the binding result in assay [1] and in assay [2] was “binds” each time.

B11: 1D2 (antibody, IgG1, V domains shown)
VH: B8 VH with V19L, F24S, V26F, T29N, G48A, I53V, K71R, G77V, A99S
VL: DIVMTQTPFSVEAAVGGTVTIKCQASQSISSYLSWYQQKPGQPPKLLIYRASPLASGVPSRFKGSGSGTQFTLTISDLECADAATYYCQSYDDSSSNNFFYGFGGGTEVVVR
notes: Rabbit monoclonal IgG1
In the case of B11, the binding result in assay [1] and in assay [2] was “binds” in each case.

B12: 4A15 (antibody, IgG1, V domains shown)
VH: B8 VH with V19L, F24S, I53V, T72A
VL: B8 VL with S28N, S30N, H37Q, A50R, E63K, Q70E, S97I
notes: Rabbit monoclonal IgG1
B12: the binding result in assay [1] and in assay [2] was “binds” each time.

B13: 1C18 (antibody, IgG1, V domains shown)
VH: B8 VH with V19L, F24S, V26F, G48A, I53A, S61T, G77V, T82P, A99S, P101N
VL: B11 VL with F9A, Y32W, I48L, S52T, P53T, N97S, G102A
notes: Rabbit monoclonal IgG1
For B13, the binding result in assay [1] and in assay [2] was “binds” in each case.

B14: 7M5 (antibody, IgG1, V domains shown)
VH: QSLEESGGRLVTPGGSLTLTCTVSGIDLSSHAMIWVRQAPGEGLEWIGTIGSRDTIYYASWAKGRFTISKTSSTTMDLKMTSLTIEDTATYFCVRNALWGPGTLVTVSS
VL: DVVMTQTPASVSEPVGGTVTIKCQASQSIRNELFWWQQKPGQPPKLLIYAASKLASGVPSRFSGSGSGTEFTLTISDLECADAATYYCQCSYVSSSGTYGNVFGGGTEVVVK
notes: Rabbit monoclonal IgG1
Regarding B14, the binding result in assay [1] and in assay [2] was “binds” each time.

B15: 5I9 (antibody, IgG1, V domains shown)
VH: QSLEESGGRLVTPGGPLTLTCTVSGFSLSSYDMSWVRQAPGKGLEWIGYIATDGRPYYASWAKGRFTISKPSSTTVDLKITSPTTEDTATYFCVRGGYAGGLWGPGTLVTVSS
VL: AAVLTQTPSPVSAAVGGTVSISCQSSKSVYNNNWLAWYQQKPGQRPKLLIYDASTLDSGVSSRFKGSGSGTQFTLTISDVQCDDGATYYCVGGYSSRSDNGFGGGTEVVVK
notes: Rabbit monoclonal IgG1
As to B15, the binding result in assay [1] and in assay [2] was “binds” in each case.
